Data as given in a protein production outcome set (Wang et al. 2014).

Assay: label from the status in PepcDB records

| Sequence | protein production |
| --- | --- |
| MFLNGKVFIKGALGPRRRDASVSATQSQGAGGGVWGGPGSELAPPSRPRGRASGLLRIKLFEASRLRSRERKMAAPAGGGGSAVSVLAPNGRRHTVKVTPSTVLLQVLEDTCRRQDFNPSEYDLKFQRTVLDLSLQWRFANLPNNAKLEMVPASRSREGPENTVRIALQLDDGCRLQDSFCSRQTLWELLNHFAQTRERLQQLGERTPVCVYMRDEVTGRAALQNTTLQSLGLTGGSATIRFVIKQYDTTGKQESIAVRSKPPGSPVSSMSADQASSSPLLPLNSGEFSRGDLNHQGGASTSGTSLKGGPKPADAQTKQSTTKESASAPFIPFSGGGQRLGGPSVSLRSLTSPAAKSSTSFSGPGGPSKPKKSKPGEEPPQEPEPPVDRDPVVCHPDLEDLLQPWPAEVPDEFFEVTVDDVRRRLAQLKSERKRLEEAPLVTKAFREAQMKEKLERYPKVALRVLFPDRYILQGFFRPSETVGDLRDFVRSHLGNPELSFYLFIAPPKMVLDDHTLTLFQVPIALRVLLGLAVLGGQALCCGWVGKEPWQALQWVIKPLEPVNSEGAVASEVVSDWAFQPPPLPAWPRGGDWPAQLAGLLSSAGAA | failed |
| MFLSAASSIIYLLLFFIASLIILVFSSDAFFDNAVPMFRSRGIGDMYAGTIFVGFASVLDEIALSASSLIFRHPEIGIGAVEGSNLITMAFFTVIVAVSYLEVAGEFTLDMIVILVLTILSMVFAEIFVHIPWFYSIALFVPFVVYLVIKAGGSKEAGYGPQEYSNIVLIVSFFLIFLSSDTLVRSTIGIASYTGINLVDLSAYGIGMVSSFPEIIMILVSLRGGRKVVSMGIFTGSTVYKMSLIPGIIIVSEPTGFSDIFYMLLAILVMSLLVLFLGIMSRKSQGRSNIH | failed |
| MFLSRPLVRIASAADRFLHGETEVKIPVKHDDEIGRLARAFNYLSEEIVRLTRKEEWLREVLSSIREAIIVTNASGEIVLANPAASRLFMIEAARKRSIPVTNIEDAAMRELFERVQKRQSGIYNEELTAMTSKGKRTLKVTAVPVMRRGALFDGTVLVINDVTRLRNLERTRRDFVSSVSHELRTPLASIKGYTETLLEGAMNDPENATAFLNIIHQEAEQLTALVNDVLDLSRIESGKIAYSFEPVDVKPQLEKTAALFEPAAARKGVRIELNAPEGLPAVLADRSYFDIVVRNLIDNAIKYVDAESGRVRVSAYATGDSVSIEVADNGIGIPQADLDRIFERFYRVDKARSRELGGTGLGLSIVKHIVLAHKGKVEVRSRINRGTTFTVTLPVAGA | failed |
| MFLTAVNPQPLSTPSWQIETKYSTKVLTGNWMEERRKFTRDTDKTPQSIYRKEYIPFPDHRPDQISRWYGKRKVEGLPYKHLITHHQEPPHRYLISTYDDHYNRHGYNPGLPPLRTWNGQKLLWLPEKSDFPLLAPPTNYGLYEQLKQRQLTPKAGLKQSTYTSSYPRPPLCAMSWREHAVPVPPHRLHPLPHF | failed |
| MFMNRLFGKPKQETSTLQTLDKLNETLEMLEKKENVLLKKATGEVEKAKEFSRAKNKRAAIQCLKRKRLYEQQVEQLGNFQLRIHDQMIMLEGAKATTETVDALRTGASAMKAMQKATNIDDVDKTMDEINEQTENMKQIQEALSAPFGANDFDEDELEAELDELEGAELEEQLLQPVPIHVPQGNKPARAPAQKQPTAEEDELAALQAEMAL | failed |
| MFNFAVSRESLLSGFQWFFFIFCNTVVVPPTLLSAFQLPQSSLLTLTQYAFLATALACFAQAFCGHRRAIMEGPGGLWWGTILTITLGEASRGTPINDIATSLAVGIALSGVLTMLIGFSGLGHRLARLFTPSVMVLFMLMLGAQLTTIFFKGMLGLPFGIADPNFKIQLPPFALSVAVMCLVLAMIIFLPQRFARYGLLVGTITGWLLWYFCFPSSHSLSGELHWQWFPLGSGGALSPGIILTAVITGLVNISNTYGAIRGTDVFYPQQGAGNTRYRRSFVATGFMTLITVPLAVIPFSPFVSSIGLLTQTGDYTRRSFIYGSVICLLVALVPALTRLFCSIPLPVSSAVMLVSYLPLLFSALVFSQQITFTARNIYRLALPLFVGIFLMALPPVYLQDLPLTLRPLLSNGLLVGILLAVLMDNLIPWERIE | failed |
